For this data set the following is noted: O-GlcNAc at T241.

Regarding YAP (Yes-associated protein): T241A, the degradation_or_half_life result is recorded as “decreases” and the other entry is “increases”.
As to “YAP (Yes-associated protein): OGT knockdown (shRNA)”, the degradation_or_half_life result is recorded as “decreases”.

The record behind these values is article PMC5424161.
